Laboratory results reported in patent US20250277003A1.

Columns and labels:
[1] = biological target: SARS-CoV-2 spike receptor-binding domain, wildtype (CoV-2 RBD WT) (SARS-CoV-2) (UniProt P0DTC2); assay: bead flow cytometry
[2] = biological target: BatCoV Anlong-103 spike RBD (BatCoV Anlong-103); assay: bead flow cytometry

Q: For mAb CR3022 (antibody), which gMFI [1] is on record?
A: 25800

Q: And the gMFI [2]?
A: 12900

Q: How did the gMFI [1] turn out when mAb S309 (antibody) was run?
A: 8370

Q: What about the gMFI [2] of the same substance?
A: 69.3
